Measured values reported in US20180009906A1 (CURED, published 2018).

T1: full length serine hydroxymethyltransferase (SEQ ID NO: 74), c-Myc tagged at the C-terminus (Escherichia coli, UniProt A7ZPZ4 1-417)
T1 construct: Expressed in Escherichia coli (DH5α); tested denatured in Western blotting of cell lysate; also called SHMT; full length: wild-type
T1 sequence: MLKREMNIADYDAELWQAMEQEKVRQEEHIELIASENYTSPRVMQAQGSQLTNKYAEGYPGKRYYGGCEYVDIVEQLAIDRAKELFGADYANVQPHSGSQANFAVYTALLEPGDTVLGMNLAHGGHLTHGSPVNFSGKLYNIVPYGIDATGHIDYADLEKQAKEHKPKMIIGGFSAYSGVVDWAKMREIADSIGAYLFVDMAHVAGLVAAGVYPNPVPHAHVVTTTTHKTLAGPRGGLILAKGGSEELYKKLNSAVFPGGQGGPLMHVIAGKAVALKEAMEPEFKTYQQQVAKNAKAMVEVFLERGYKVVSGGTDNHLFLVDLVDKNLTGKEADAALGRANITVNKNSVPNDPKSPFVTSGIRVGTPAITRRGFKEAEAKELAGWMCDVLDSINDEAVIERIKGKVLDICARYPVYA

T2: serine hydroxymethyltransferase Δ2-28 mutant (Escherichia coli, UniProt A7ZPZ4 29-417)
T2 construct: Expressed in Escherichia coli cells and 293T cells; tested in Western blotting of cell lysate; not shown: Myc-tag (40aa) at the C-terminus
T2 sequence: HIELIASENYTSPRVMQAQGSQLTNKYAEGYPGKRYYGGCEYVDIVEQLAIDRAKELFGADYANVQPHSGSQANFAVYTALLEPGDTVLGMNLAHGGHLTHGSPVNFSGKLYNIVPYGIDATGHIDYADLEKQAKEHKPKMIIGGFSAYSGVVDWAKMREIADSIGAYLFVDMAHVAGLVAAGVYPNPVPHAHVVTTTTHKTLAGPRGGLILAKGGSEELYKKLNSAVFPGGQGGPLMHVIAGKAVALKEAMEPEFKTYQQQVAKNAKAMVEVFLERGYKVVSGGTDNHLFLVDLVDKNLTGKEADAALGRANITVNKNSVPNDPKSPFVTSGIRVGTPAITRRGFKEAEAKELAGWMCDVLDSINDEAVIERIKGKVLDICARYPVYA


Tests used:
[1] = target: T1, full length serine …; test: Western blot of c-Myc-tagged full-length SHMT expressed in E. coli (DH5α)
[2] = target: T2, serine hydroxymethyltransferase Δ2-28 …; test: Western blot of cell lysates (E. coli and 293T expression)

| Binder | binding result [1] | binding result [2] |
| --- | --- | --- |
| W11 monoclonal IgA antibody (antibody, V domains shown, Mouse IgA from hybridoma) VH: QVQLKQSGPGLVQPSQSLSITCTVSGFSLTNYGVHWIRQSPGKGLEWLGVIWSGGRIDYNAAFISRLNINKDNSKSQVFFKMNSLQTDDTAIYYCARTYDGYYFFQYWGQGTPLTVSS VL: DVVMTQTPLSLPVSLGDEASISCRSSRSLIHSNGHTFLDWYLQKPGQSPKLLIYKVSNRFSGVPDRFSGSGSGTDFTLKISRVEAEDLGVYFCAQSTHAPLLTFGAGTKLELKR | binds | – |
| W34 monoclonal IgA antibody (antibody, V domains shown, Mouse IgA from hybridoma) VH: DVQLQESGPGMVKPSQSLSLTCTVTGYSITSGYDWHWIRHFPGNKLEWMGYISYSGSTDYNPALRSRISITRDTSTNHFFLKVNSVTTEDTATYYCARDGYGSNYVMAYWGQGTSVTVSS VL: QIVLTQSPAIMSASPGEKVTITCSASSSVHYIHWFQLKPGTSPKLWIYSTSNLASGVPARFSGSGSGTSYSLTISRMEAEDAATYYCQQRSSYPLTFGAGTKLELKR | binds | – |
| W27 monoclonal IgA antibody (antibody, V domains shown, Mouse IgA from a hybridoma of small-intestinal lamina propria B cells of wild-type C57BL/6 mice, partially purified) VH: EVQLQQSGSELVKSGASVKLSCTVSGFNFTDYYIHWVRQRTEQGLEWIGRIDPENDETTYAPKFQGKATMTADTSSNTAYLQLTSLTSEDTAVYYCARSTVLDYWGHGTTLTVSS VL: DVLMTQTPLSLPVSLGDQASISCRASQSIVHTNGNTYLEWYLQKPGQSPKLLIYKVSNRFSGVPDRFSGSGSGTDFILKISRVEAEDLGVYYCFQGSHVPPTFGGGTKLEVKR | – | no binding |
